Legend:
[1] = tested on: UMR-106 cells (PTH responsive cell line); assay: In vitro induction of cAMP in UMR-106 cells (cAMP ELISA); format: cell-based, rat
Description: FIG. 3: In Vitro Bioactivity of 14A1 and 14A2 proteins. Purified proteins were tested for their ability to stimulate cAMP production from the PTH responsive cell line, UMR-106 (rat osteoblastic like cell line). Cells were stimulated for 15 minutes in the presence of test molecules and cAMP levels measured from cell lysates using a cAMP specific Elisa. […] Data is presented as pmol cAMP/ml+/−Standard deviation;
FIG. 29A: In vitro induction of cAMP. […] Cells were lysed and cAMP levels measured using an R & D systems Parameter cAMP Elisa. Data are presented as log pmol cAMP/ml±SD. […] Average of n=1 experiment carried out in duplicate.
Purified proteins were tested for their ability to stimulate cAMP production from the PTH responsive cell line, UMR-106 (rat osteoblastic like cell line). Cells were stimulated for 15 minutes in the presence of test molecules and cAMP levels measured from cell lysates using a cAMP specific Elisa (R&D systems).

UMR-106 cells = assay: Dual Luciferase Reporter Assay for cAMP activity (pGL4.29/CRE/Luc2) in UMR-106 cells; format: cell-based, rat; conditions: FIG. 29D
Description: Cells were lysed and Luciferase activity measured using the Promega Dual Luciferase Assay kit. Data are presented as fold induction of control±SD. […] Average of triplicate values. […] Representative of 3 separate experiments.
Cells were lysed and Luciferase activity measured using the Promega Dual Luciferase Assay kit. Data are presented as fold induction of control±SD.
FIG. 29D: Determination of EC50 values for PTH & PTH fusions using the Dual Luciferase Reporter Assay.

[2] = 500 nM PTH fusion, 15 minutes at 37° C./5% CO2, FIG. 29A, n=1 experiment in duplicate

CC[C@H](C)[C@H](NC(=O)[C@H](CCC(=O)O)NC(=O)[C@H](CO)NC(=O)[C@@H](NC(=O)[C@@H](N)CO)C(C)C)C(=O)N[C@@H](CCC(N)=O)C(=O)N[C@@H](CC(C)C)C(=O)N[C@@H](CCSC)C(=O)N[C@@H](Cc1c[nH]cn1)C(=O)N[C@@H](CC(N)=O)C(=O)N[C@@H](CC(C)C)C(=O)NCC(=O)N[C@@H](CCCCN)C(=O)N[C@@H](Cc1c[nH]cn1)C(=O)N[C@@H](CC(C)C)C(=O)N[C@@H](CC(N)=O)C(=O)N[C@@H](CO)C(=O)N[C@@H](CCSC)C(=O)N[C@@H](CCC(=O)O)C(=O)N[C@@H](CCCNC(=N)N)C(=O)N[C@H](C(=O)N[C@@H](CCC(=O)O)C(=O)N[C@@H](Cc1c[nH]c2ccccc12)C(=O)N[C@@H](CC(C)C)C(=O)N[C@@H](CCCNC(=N)N)C(=O)N[C@@H](CCCCN)C(=O)N[C@@H](CCCCN)C(=O)N[C@@H](CC(C)C)C(=O)N[C@@H](CCC(N)=O)C(=O)N[C@@H](CC(=O)O)C(=O)N[C@H](C(=O)N[C@@H](Cc1c[nH]cn1)C(=O)N[C@@H](CC(N)=O)C(=O)N[C@@H](Cc1ccccc1)C(=O)O)C(C)C)C(C)C [PTH 1-34, reference compound]
cAMP levels (mean±SD) ([1]; 100 nM human PTH 1-34, 15 minutes at 37° C./5% CO2, FIG. 29A): 2551±186 pmol cAMP/ml

B1: 14A2c: PTHss-pp-PTH (1-34)-(g4s)4-PTHrExt-(g4s)4-GHbp, SEQ ID NO: 13 (protein)
chain: MIPAKDMAKVMIVMLAICFLTKSDGKSVKKRSVSEIQLMHNLGKHLNSMERVEWLRKKLQDVHNFGGGGSGGGGSGGGGSGGGGSDDVMTKEEQIFLLHRAQAQCEKRLKEVLQRPASIMESDKGWTSASTSGKPRKDKASGKLYPESEEDKEAPTGSRYRGRPCLPEWDHILCWPLGAPGEVVAVPCPDYIYDFNHKGHAYRRCDRNGSWELVPGHNRTWANYSECVKFLTNETREREVFDRLGGGGSGGGGSGGGGSGGGGSFSGSEATAAILSRAPWSLQSVNPGLKTNSSKEPKFTKCRSPERETFSCHWTDEVHHGTKNLGPIQLFYTRRNTQEWTQEWKECPDYVSAGENSCYFNSSFTSIAIPYCIKLTSNGGTVDEKCFSVDEIVQPDPPIALNWTLLNVSLTGIHADIQVRWEAPRNADIQKGWMVLEYELQYKEVNETKWKMMDPILTTSVPVYSLKVDKEYEVRVRSKQRNSGNYGEFSEVLYVTLPQMSQ
modifications: Fusion proteins
cAMP levels (mean±SD) [1, 2]: 264±12 pmol cAMP/ml
fold by which PTH is more potent than the fusion (EC50 ratio) (UMR-106 cells): ~18 fold

B2: 14A3b: GHss-PTH (1-34)-(g4s)4-PTHrExt-(g4s)4-GHbp, SEQ ID NO: 14 (protein)
chain: MATGSRTSLLLAFGLLCLPWLQEGSASVSEIQLMHNLGKHLNSMERVEWLRKKLQDVHNFGGGGSGGGGSGGGGSGGGGSDDVMTKEEQIFLLHRAQAQCEKRLKEVLQRPASIMESDKGWTSASTSGKPRKDKASGKLYPESEEDKEAPTGSRYRGRPCLPEWDHILCWPLGAPGEVVAVPCPDYIYDFNHKGHAYRRCDRNGSWELVPGHNRTWANYSECVKFLTNETREREVFDRLGGGGSGGGGSGGGGSGGGGSFSGSEATAAILSRAPWSLQSVNPGLKTNSSKEPKFTKCRSPERETFSCHWTDEVHHGTKNLGPIQLFYTRRNTQEWTQEWKECPDYVSAGENSCYFNSSFTSIAIPYCIKLTSNGGTVDEKCFSVDEIVQPDPPIALNWTLLNVSLTGIHADIQVRWEAPRNADIQKGWMVLEYELQYKEVNETKWKMMDPILTTSVPVYSLKVDKEYEVRVRSKQRNSGNYGEFSEVLYVTLPQMSQ
modifications: Fusion proteins
cAMP levels (mean±SD) [1, 2]: 25±0.95 pmol cAMP/ml
fold by which PTH is more potent than the fusion (EC50 ratio) (UMR-106 cells): 28 fold

Source: US11344606B2, “Parathyroid hormone fusion polypeptide” (University of Sheffield, priority 2017, dated 2022)
